From publication PMC4385930 come the findings set out here.

As a reminder, the Kd is a measure of binding affinity in units of concentration. A low value points to higher affinity.

Holding throughout (experiment): ITC
The target of experiment [1] is Bak BH3 BH3 (Homo sapiens), Q16611.
Experiment [2] concerns the target Bax BH3 BH3 (Homo sapiens), Q07812.
The target in experiment [3] is Bid BH3 BH3 (Homo sapiens), P55957.

B1: F1L ΔN38ΔC36, P24356 (protein)
chain: YPLPENMVYRFDKSTNILDYLSTERDHVMMAVRYYMSKQRLDDLYRQLPTKTRSYIDIINIYCDKVSNDYNRDMNIMYDMASTKSFTVYDINNEVNTILMDNKGLGVRLATISFITELGRRCMNPVETIKMFTLLSHTICDDYFVDYITDIS
For the molecule B1, the Kd in experiment [1] stood at 2640 nM; in experiment [2] it was 920 nM; in experiment [3], 3220 nM.
